Data reported in patent US20230151079A1 (FUNDA O BUTANTAN, published 2023).

Experiments:
[1] = target: T1, thrombin (Homo sapiens (Human), UniProt P00734 315-363; P00734 364-622); test: cell-based or functional assay
[2] = target: T1, thrombin; test: calculated from kon and koff (equation 7)
[3] = target: T1, thrombin; test: enzyme kinetics, S-2238 hydrolysis by thrombin; Morrison tight binding equation
[4] = target: T1, thrombin; test: enzyme kinetics, S-2238 hydrolysis by thrombin; nonlinear regression for competing enzyme inhibition
[5] = target: T1, thrombin; test: progress curves of S-2238 hydrolysis by thrombin; kobs plotted against recombinant protein concentration
[6] = target: T1, thrombin; test: enzyme kinetics, S-2238 hydrolysis by thrombin 0.1 nM; apparent Km from Lineweaver-Burk plots against inhibitor concentration; competing inhibition

Q: Which “thrombin inhibition activity retained, relative to non-hydrolyzed recombinant protein (S-2238 hydrolysis, thrombin 0.1 nM, fragment 100 pM)” value [1] does the source give for GKPQGHPHDALEARSDAVHTAVPKMPKGGHGGFEPIPIDYDERALEAR [Recombinant protein fragment of HPLC peak H1 generated by factor Xa (SEQ ID NO: 10)] here?
A: ~50 % of preserved recombinant protein

B1: Recombinant protein (SEQ ID NO: 1), modified from sculptin of the tick Amblyomma cajennense (other)
chain: GKPQGHPHDALEARSDAVHTAVPKMPKGGHGGFEPIPIDYDERALEARSDAVHTAVPKMPKGGLGGFEPIPIDYDERALEARSDAVHTAVPKMPKGGHGGFEPIPIDYDERALEARSDAVHTAVPKMPKGGHGGFEPIPIDYDERALHALEHHHHHH
notes: Expressed in E. coli BL21(DE3) from pET28a, without signal peptide and with a C-terminal polyhistidine tail; Mass 16990.90 Da by MALDI-TOF; also called Scpt; preserved recombinant protein
Q: Which “IC50 of thrombin inhibition (hydrolysis of S-2238 by thrombin 0.1 nM)” value [1] does the source give for B1 here?
A: 0.0866 nM

Q: And the Ki [2]?
A: 0.0161 nM

Q: And the Ki [3]?
A: 0.0195 nM

Q: And the Ki [4]?
A: 0.0181 nM

Q: And the koff [5]?
A: 0.00065 s⁻¹

Q: And the kon [5]?
A: 4.04e+07 M⁻¹ s⁻¹

Q: What about the Ki [6] of the same binder?
A: 0.0185 nM
